Experiment: Enzymatic deesterification of paprika oleoresin carotenoids, HPLC determination
Assay type: biochemical
Description: HPLC was conducted on a Shimadzu LC-10 AT equipped with SCL-10A Shimadzu diode array detector. Photodiode array measurements of spectral properties from the individual peaks (from 260 to 540 nm) were determined at the upslope, apex and downslope. The column (Merck RP-18e 3.4×250 […], 5-μm particles) was used for HPLC separations. The peaks were detected at 450 and 474 nm.
Deesteriflcation paprika oleoresin by enzymes: Paprika oleoresin (20 mg) was mixed with TWEEN-20 (200 μl) or deoxycholate (100 mg) and 10 ml of H2O. The emulsion has been shaken at 37° C. for 24 hours. Extraction of carotenoids was performed by the addition of 4 ml of ethanol and 5 ml of hexane. The extraction with hexane was done repeatedly until no color could be observed in the extracts. The combined hexane extracts were washed with water (25 ml) and dried over anhydrous sodium sulfate for HPLC determination of the carotenoids.

- deesterification in similar assays with other lipases, compared with lipase amano 30 (similar assays to FIGS. 3 and 4): far poorer results
B1: pancreatic lipase: lipase pancreatic from porcine, obtained from Sigma Chemical Co. (protein, UniProt P00591 1-450, looked up)
Pancreatic triacylglycerol …: SEVCFPRLGCFSDDAPWAGIVQRPLKILPWSPKDVDTRFLLYTNQNQNNYQELVADPSTITNSNFRMDRKTRFIIHGFIDKGEEDWLSNICKNLFKVESVNCICVDWKGGSRTGYTQASQNIRIVGAEVAYFVEVLKSSLGYSPSNVHVIGHSLGSHAAGEAGRRTNGTIERITGLDPAEPCFQGTPELVRLDPSDAKFVDVIHTDAAPIIPNLGFGMSQTVGHLDFFPNGGKQMPGCQKNILSQIVDIDGIWEGTRDFVACNHLRSYKYYADSILNPDGFAGFPCDSYNVFTANKCFPCPSEGCPQMGHYADRFPGKTNGVSQVFYLNTGDASNFARWRYKVSVTLSGKKVTGHILVSLFGNEGNSRQYEIYKGTLQPDNTHSDEFDSDVEVGDLQKVKFIWYNNNVINPTLPRVGASKITVERNDGKVYDFCSQETVREEVLLTLNPC
- extent of deesterification of paprika carotenoids (general statement, "shown herein"): to a very limited extent

From patent publication US20040175785A1, “Increasing bioavailability of carotenoids” (priority 2001, published 2004)
